13 molecules from article PMC3988174, “A Split-Ubiquitin Yeast Two-Hybrid Screen to Examine the Substrate Specificity of atToc159 and atToc132, Two Arabidopsis Chloroplast Preprotein Import Receptors” (PLoS ONE, 2014) can be followed below.

First the molecules themselves.
B1: Protochlorophyllide oxidoreductase B (natural protein, Arabidopsis thaliana, UniProt P21218 1-401, looked up)
chain: MALQAASLVSSAFSVRKDAKLNASSSSFKDSSLFGASITDQIKSEHGSSSLRFKREQSLRNLAIRAQTAATSSPTVTKSVDGKKTLRKGNVVVTGASSGLGLATAKALAETGKWNVIMACRDFLKAERAAKSVGMPKDSYTVMHLDLASLDSVRQFVDNFRRTETPLDVLVCNAAVYFPTAKEPTYSAEGFELSVATNHLGHFLLARLLLDDLKKSDYPSKRLIIVGSITGNTNTLAGNVPPKANLGDLRGLAGGLNGLNSSAMIDGGDFDGAKAYKDSKVCNMLTMQEFHRRFHEETGVTFASLYPGCIASTGLFREHIPLFRALFPPFQKYITKGYVSETESGKRLAQVVSDPSLTKSGVYWSWNNASASFENQLSEEASDVEKARKVWEISEKLVGLA
B2: Cysteine synthase (natural protein)
chain: not shown
B3: Photosystem I subunit F (natural protein, Arabidopsis thaliana, UniProt Q9SHE8 1-221, looked up)
chain: MSLTIPANLVLNPRSNKSLTQSVPKSSARFVCSDDKSSSSTPQSMKAFSAAVALSSILLSAPMPAVADISGLTPCKDSKQFAKREKQQIKKLESSLKLYAPESAPALALNAQIEKTKRRFDNYGKYGLLCGSDGLPHLIVNGDQRHWGEFITPGILFLYIAGWIGWVGRSYLIAISGEKKPAMKEIIIDVPLASRIIFRGFIWPVAAYREFLNGDLIAKDV
B4: Violaxanthin Deepoxidase (natural protein, Arabidopsis thaliana, UniProt Q39249 1-462, looked up)
chain: MAVATHCFTSPCHDRIRFFSSDDGIGRLGITRKRINGTFLLKILPPIQSADLRTTGGRSSRPLSAFRSGFSKGIFDIVPLPSKNELKELTAPLLLKLVGVLACAFLIVPSADAVDALKTCACLLKGCRIELAKCIANPACAANVACLQTCNNRPDETECQIKCGDLFENSVVDEFNECAVSRKKCVPRKSDLGEFPAPDPSVLVQNFNISDFNGKWYITSGLNPTFDAFDCQLHEFHTEGDNKLVGNISWRIKTLDSGFFTRSAVQKFVQDPNQPGVLYNHDNEYLHYQDDWYILSSKIENKPEDYIFVYYRGRNDAWDGYGGAVVYTRSSVLPNSIIPELEKAAKSIGRDFSTFIRTDNTCGPEPALVERIEKTVEEGERIIVKEVEEIEEEVEKEVEKVGRTEMTLFQRLAEGFNELKQDEENFVRELSKEEMEFLDEIKMEASEVEKLFGKALPIRKVR
B5: Photosystem I light harvesting complex gene 1 (natural protein, Arabidopsis thaliana, UniProt Q01667 1-241, looked up)
chain: MASNSLMSCGIAAVYPSLLSSSKSKFVSAGVPLPNAGNVGRIRMAAHWMPGEPRPAYLDGSAPGDFGFDPLGLGEVPANLERYKESELIHCRWAMLAVPGILVPEALGYGNWVKAQEWAALPGGQATYLGNPVPWGTLPTILAIEFLAIAFVEHQRSMEKDPEKKKYPGGAFDPLGYSKDPKKLEELKVKEIKNGRLALLAFVGFCVQQSAYPGTGPLENLATHLADPWHNNIGDIVIPFN
B6: Cytochrome b561-2 (natural protein, Arabidopsis thaliana, UniProt Q8L856 1-239, looked up)
chain: MAVRINAMAVTFVAHALAVIAAIMVLVWSISYRGGLAWEATNKNLIFNLHPVLMLIGFIILGGEAIISYKSLPLEKPVKKLIHLILHAIALALGIFGICAAFKNHNESHIPNLYSLHSWIGIGVISLYGFQWVYSFIVFFFPGGSTNLKSGLLPWHAMLGLFVYILAVGNAALGFLEKLTFLENGGLDKYGSEAFLINFTAIITILFGAFVVLTASAESPSPSPSVSNDDSVDFSYSAI
B7: AIG2-like avirulence induced gene family protein (natural protein, Arabidopsis thaliana, UniProt Q9MBH2 1-169, looked up)
chain: MTSSDKSLSHDVFVYGSFQEPSVVNLILECSPVMVPAQLHGYHVYRLKGRLHACISPSENGLINGKILTGLTDSQLENLDMIEGSEYVRKTVEVVLTDTSEKKQVETYVWANKDDPNLYGEWDFEEWRRLHMDKFIEASTKFIEWKKNPDGRSREEFEKFVFDDPPTAA
B8: Photosystem I light harvesting complex gene 2 (natural protein, Arabidopsis thaliana, UniProt Q9SYW8 1-257, looked up)
chain: MASSLCASSAIAAISSPSFLGGKKLRLKKKLTVPAVSRPDASVRAVAADPDRPIWFPGSTPPEWLDGSLPGDFGFDPLGLSSDPDSLKWNVQAEIVHCRWAMLGAAGIFIPEFLTKIGILNTPSWYTAGEQEYFTDKTTLFVVELILIGWAEGRRWADIIKPGSVNTDPVFPNNKLTGTDVGYPGGLWFDPLGWGSGSPAKLKELRTKEIKNGRLAMLAVMGAWFQHIYTGTGPIDNLFAHLADPGHATIFAAFTPK
B9: Ferredoxin-thioredoxin reductase subunit A (natural protein, Arabidopsis thaliana, UniProt Q9SJ89 1-146, looked up)
chain: MNLQAVSCSFGFLSSPLGVTPRTSFRRFVIRAKTEPSEKSVEIMRKFSEQYARRSGTYFCVDKGVTSVVIKGLAEHKDSYGAPLCPCRHYDDKAAEVGQGFWNCPCVPMRERKECHCMLFLTPDNDFAGKDQTITSDEIKETTANM
B10: Photosystem I reaction center subunit PSI-N (natural protein, Arabidopsis thaliana, UniProt P49107 1-171, looked up)
chain: MAAMNSSVLTCSYAIAGSGSVELNQKVGLVNSSVGFGQKKQMIMPVIKAQRVVGDDVDGSNGRRSAMVFLAATLFSTAAVSASANAGVIDEYLERSKTNKELNDKKRLATSGANFARAFTVQFGSCKFPENFTGCQDLAKQKKVPFISEDIALECEGKDKYKCGSNVFWKW
B11: Low PSII accumulation 3 protein (natural protein)
chain: not shown
B12: Photosystem I light harvesting complex gene 3 (natural protein, Arabidopsis thaliana, UniProt Q9SY97 1-273, looked up)
chain: MAAQALVSSSLTSSVQTARQIFGSKPVASASQKKSSFVVKAAATPPVKQGANRPLWFASSQSLSYLDGSLPGDYGFDPLGLSDPEGTGGFIEPRWLAYGEIINGRFAMLGAAGAIAPEILGKAGLIPAETALPWFQTGVIPPAGTYTYWADNYTLFVLEMALMGFAEHRRLQDWYNPGSMGKQYFLGLEKGLAGSGNPAYPGGPFFNPLGFGKDEKSLKELKLKEVKNGRLAMLAILGYFIQGLVTGVGPYQNLLDHLADPVNNNVLTSLKFH
B13: 5′-Adenylylsulfate reductase 2 (natural protein, Arabidopsis thaliana, UniProt P92981 1-454, looked up)
chain: MALAVTSSSTAISGSSFSRSGASSESKALQICSIRLSDRTHLSQRRYSMKPLNAESHSRSESWVTRASTLIAPEVEEKGGEVEDFEQLAKKLEDASPLEIMDKALERFGDQIAIAFSGAEDVALIEYARLTGKPFRVFSLDTGRLNPETYRLFDAVEKQYGIRIEYMFPDAVEVQALVRNKGLFSFYEDGHQECCRVRKVRPLRRALKGLKAWITGQRKDQSPGTRSEIPIVQVDPVFEGLDGGVGSLVKWNPLANVEGADVWNFLRTMDVPVNALHAQGYVSIGCEPCTRPVLPGQHEREGRWWWEDAKAKECGLHKGNIKEEDGAADSKPAAVQEIFESNNVVALSKGGVENLLKLENRKEAWLVVLYAPWCPFCQAMEASYIELAEKLAGKGVKVAKFRADGEQKEFAKQELQLGSFPTILLFPKRAPRAIKYPSEHRDVDSLMSFVNLLR

In this experiment the target is T1, atToc132 A- plus G-domains bait (Arabidopsis thaliana, UniProt Q9SLF3 1-794).
T1 construct: atToc132, A. thaliana, A- and G-domains, amino acids 1-794; also called Toc132AG; atToc132AG; source: yeast two-hybrid fusion (pBT3-STE, S. cerevisiae NMY51); not shown: STE2 leader (N-terminal 13 amino acids of S. cerevisiae Ste2), N-terminal, kept; Cub-LexA-VP16, C-terminal, kept
T1 sequence (Q9SLF3 1-794): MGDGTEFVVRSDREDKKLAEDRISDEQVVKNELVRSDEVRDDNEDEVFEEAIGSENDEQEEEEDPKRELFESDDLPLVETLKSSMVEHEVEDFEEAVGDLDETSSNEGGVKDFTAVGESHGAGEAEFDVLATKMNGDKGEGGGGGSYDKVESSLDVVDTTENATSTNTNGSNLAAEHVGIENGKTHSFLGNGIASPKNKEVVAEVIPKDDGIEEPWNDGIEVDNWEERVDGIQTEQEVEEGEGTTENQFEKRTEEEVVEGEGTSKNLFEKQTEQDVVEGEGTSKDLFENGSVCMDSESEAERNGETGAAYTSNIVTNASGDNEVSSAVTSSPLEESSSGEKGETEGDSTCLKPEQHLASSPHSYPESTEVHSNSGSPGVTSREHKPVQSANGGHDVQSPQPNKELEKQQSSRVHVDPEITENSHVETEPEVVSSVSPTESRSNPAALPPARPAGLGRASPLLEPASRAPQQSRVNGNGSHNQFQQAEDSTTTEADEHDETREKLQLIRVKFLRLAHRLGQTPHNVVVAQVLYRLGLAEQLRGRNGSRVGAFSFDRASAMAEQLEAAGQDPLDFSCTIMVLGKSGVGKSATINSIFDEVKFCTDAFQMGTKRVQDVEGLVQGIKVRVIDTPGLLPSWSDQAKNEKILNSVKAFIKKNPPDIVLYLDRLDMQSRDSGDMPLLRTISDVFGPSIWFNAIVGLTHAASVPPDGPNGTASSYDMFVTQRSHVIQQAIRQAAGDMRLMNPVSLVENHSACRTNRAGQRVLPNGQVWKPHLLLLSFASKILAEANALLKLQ
Put plainly: two-hybrid; pairwise split-ubiquitin yeast two-hybrid of isolated NubG-preys with Toc159G, Toc132G or Toc132AG bait in NMY51; growth on SD-LWHA (3-AT) and quantitative β-Gal assay, activity relative to a reference bait set to 100%. As to conditions: partners not purified.
Take B1: the “relative strength of interaction (β-Gal) with Toc132AG against Toc132G, % change” value (from here on “relative strength of interaction … % change”) was -34.7%.
With B2, the “% increase in strength of interaction (β-Gal) with Toc132AG against Toc132G” value (from here on “% increase in strength of interaction”) worked out at 175%.
With B3, the “relative strength of interaction … % change” value is -25.5%.
In the case of B4, the “relative strength of interaction … % change” value was -29.9%.
The same measure, in the same setting: for B5 the value was -24.5%.
Turning to B6, the “% increase in strength of interaction” value was determined as 49.6%.
For B7, the “% increase in strength of interaction” value was 41.3%.
Regarding B8, the “relative strength of interaction … % change” value was -36.4%.
For the molecule B9, the “relative strength of interaction … % change” value was -15%.
The same measure, in the same setting: for B10 the value was -25.4%; for B11, -11.7%; for B12, -26.8%.
On to B13, for which the “% increase in strength of interaction” value is 24.5%.
